We go through five substances from article PMC11255866.

Where two headings read alike, the source gives them in different places.

Holding throughout (assay): fluorescence polarisation
A general note: Polarisation of emitted light reports the rotation of a fluorescent probe.

Assay [1] addresses U1‐70K BAD1 255–278 (human) (UniProt P08621).
The target of assay [2] is SRSF1 RRM1 (residues 14–90), Alexa Fluor 488 labelled (human) (UniProt Q07955).
The target is the same in assay [3]. This is another data set of the same source.
Assay [4] deals with Hyper‐phosphorylated SRSF1 (phosphorylated by Clk1), Alexa Fluor 488 labelled at T248C (human) (UniProt Q07955).
Sequence of Hyper‐phosphorylated SRSF1 (phosphorylated by Clk1), Alexa Fluor 488 labelled at T248C (human) (Q07955 whole entry T248C): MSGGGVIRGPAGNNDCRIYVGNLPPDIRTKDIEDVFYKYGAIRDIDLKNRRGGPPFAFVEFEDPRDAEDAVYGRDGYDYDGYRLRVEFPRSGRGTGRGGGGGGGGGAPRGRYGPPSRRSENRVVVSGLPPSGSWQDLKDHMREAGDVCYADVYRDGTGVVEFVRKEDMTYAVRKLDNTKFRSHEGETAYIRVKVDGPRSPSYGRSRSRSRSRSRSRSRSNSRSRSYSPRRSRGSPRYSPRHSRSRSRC

Sequence of U1‐70K RRM (residues 64–202) (P08621 64-202): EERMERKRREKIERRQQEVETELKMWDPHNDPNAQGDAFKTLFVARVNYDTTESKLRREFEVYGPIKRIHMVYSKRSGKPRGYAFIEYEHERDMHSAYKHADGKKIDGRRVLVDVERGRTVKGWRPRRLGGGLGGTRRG
Sequence of Hyper phosphorylated SRSF1 RS (residues 199–248), unlabelled (Q07955 199-248): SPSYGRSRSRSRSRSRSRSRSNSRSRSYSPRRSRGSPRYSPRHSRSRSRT
Sequence of U1‐70K BAD1 (residues 229–306) (P08621 229-306): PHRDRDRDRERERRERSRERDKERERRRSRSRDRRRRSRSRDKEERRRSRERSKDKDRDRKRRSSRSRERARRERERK
Sequence of U1‐70K RRM 92–202 (P08621 92-202): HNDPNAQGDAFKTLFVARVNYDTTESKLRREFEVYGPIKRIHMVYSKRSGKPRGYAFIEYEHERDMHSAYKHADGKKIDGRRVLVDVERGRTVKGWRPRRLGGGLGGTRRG

The substance “Hyper phosphorylated SRSF1 RS (residues 199–248), unlabelled (from UniProt Q07955 199-248) (domain or fragment)” yielded a dissociation constant (Kd) in assay [1] of 2000 nM.
“U1‐70K BAD1 (residues 229–306) (from UniProt P08621 229-306) (domain or fragment)”: the Kd in assay [2] stood at 240 nM.
In assay [3], “U1‐70K RRM 92–202 (from UniProt P08621 92-202) (domain or fragment)” yielded a Kd of 7000 nM.
In the case of “U1‐70K RRM (residues 64–202) (from UniProt P08621 64-202) (domain or fragment)”, the Kd in assay [2] came out at 3000 nM; in assay [3], 6000 nM.
As to U1‐70K ΔBAD2 (domain or fragment), in assay [4], the Kd stood at 650 nM.

The term Kd denotes the free concentration of one partner at which half of the binding sites on the other are occupied at equilibrium, for simple one-to-one binding. A high value points to lower affinity.
